What was measured:
Construct #2248 = molecular target: T1, Construct #2248 (human; mouse, UniProt P09326 27-220, limits assumed); test: ELISA: 1:10 diluted HEK293T supernatant of the CD48-mouse IgG construct; antibody at 25, 250 and 500 ng/mL; detection with goat anti-mouse IgG (H+L) HRP; Mean OD450-570
T1 construct: also called hCD48EC:mouse-Ig with ENYKQ modified into GSSKQ
T1 chain: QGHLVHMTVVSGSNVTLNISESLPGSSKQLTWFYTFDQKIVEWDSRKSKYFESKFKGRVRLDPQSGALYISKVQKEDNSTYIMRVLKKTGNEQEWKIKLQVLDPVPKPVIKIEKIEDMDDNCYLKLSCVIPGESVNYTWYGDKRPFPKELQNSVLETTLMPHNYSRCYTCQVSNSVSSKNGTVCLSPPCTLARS
Procedure: (§1) Applying the 3D structure models of the CD48 protein, three exposed loops of the protein were selected and changed by site directed mutagenesis utilizing PCR. Antibody binding epitopes were determined by ELISA. […] The template construct, hCD48EC:mouse-Ig originates from the expression plasmid generated to express the human CD48-mouse IgG1 fusion protein for immunization amplified from the commercial vector “Trueclone, CD48 (untagged)-Human CD48 molecule” (Origene, NM_001778.2). Primer for the site directed mutagenesis were synthesized by Microsynth (Switzerland).

[1] = molecular target: T2, Non-mutated CD48-mouse IgG fusion construct (human; mouse, UniProt P09326 27-220, limits assumed); test: as above
T2 construct: Used as HEK293T culture supernatant in the ELISA; also called hCD48EC:mouse-Ig; human CD48-mouse IgG1 fusion protein
T2 sequence: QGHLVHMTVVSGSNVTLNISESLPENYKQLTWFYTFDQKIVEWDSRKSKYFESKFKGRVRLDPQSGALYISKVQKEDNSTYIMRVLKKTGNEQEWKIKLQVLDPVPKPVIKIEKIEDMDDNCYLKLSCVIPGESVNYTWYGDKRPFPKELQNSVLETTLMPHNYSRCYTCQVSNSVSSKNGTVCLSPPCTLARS
Procedure: as §1

2249 = molecular target: T3, 2249 (Homo sapiens, UniProt P09326); test: as above
T3 chain: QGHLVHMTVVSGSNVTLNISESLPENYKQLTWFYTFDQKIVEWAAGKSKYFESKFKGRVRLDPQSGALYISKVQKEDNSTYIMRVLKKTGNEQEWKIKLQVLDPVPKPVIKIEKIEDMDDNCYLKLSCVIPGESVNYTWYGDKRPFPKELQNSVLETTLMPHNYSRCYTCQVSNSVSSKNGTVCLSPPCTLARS
Procedure: as §1

Construct #2250 = molecular target: T4, Construct #2250 (human; mouse, UniProt P09326 27-220, limits assumed); test: as above
T4 construct: also called hCD48EC:mouse-Ig with KKTGNE modified into KKDASG
T4 chain: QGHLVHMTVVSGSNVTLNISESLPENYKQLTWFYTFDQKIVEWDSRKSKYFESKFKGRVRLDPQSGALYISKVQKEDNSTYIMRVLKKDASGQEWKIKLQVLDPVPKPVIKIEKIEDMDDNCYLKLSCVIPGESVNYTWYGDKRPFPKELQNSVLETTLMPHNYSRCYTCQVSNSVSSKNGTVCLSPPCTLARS
Procedure: as §1

Human CD48 on cells = molecular target: T5, Human CD48 on cells (human, UniProt P09326 27-220); test: cell-based or functional assay
T5 sequence: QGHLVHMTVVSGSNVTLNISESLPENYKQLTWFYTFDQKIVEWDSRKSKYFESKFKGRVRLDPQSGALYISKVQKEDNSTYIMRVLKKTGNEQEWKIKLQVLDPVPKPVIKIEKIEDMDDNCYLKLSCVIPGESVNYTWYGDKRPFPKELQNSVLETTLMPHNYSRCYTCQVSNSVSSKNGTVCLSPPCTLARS

- binding result (Construct #2248): no binding (tested: 500 ng/mL)
- EC50 (read off the curve) [1]: ~0.02 µg/mL
- EC50 (read off the curve) 2249: ~0.03 µg/mL
- EC50 (read off the curve) (Construct #2250): ~0.02 µg/mL
- Span (Amax), KMS-21-BM, with anti-human Fc-VC-MMAE (Human CD48 on cells): 92
- Span (Amax), KMS-27, with anti-human Fc-VC-MMAE (Human CD48 on cells): 93.4
- Span (Amax), NCI-H929, with anti-human Fc-VC-MMAE (Human CD48 on cells): 100
B1: humanized CD48A (antibody, human IgG1, kappa)
heavy: not shown
light: EIVLTQSPDFQSVTPKEKVTITCRASQSIGSNIHWYQQKPDQSPKLLIKYTSESISGVPSRFSGSGSGTDFTLTINSLEAEDAATYYCQQSNSWPLTFGGGTKVEIKRTVAAPSVFIFPPSDEQLKSGTASVVCLLNNFYPREAKVQWKVDNALQSGNSQESVTEQDSKDSTYSLSSTLTLSKADYEKHKVYACEVTHQGLSSPVTKSFNRGEC
notes: also called humanized MEM102 antibody; anti-CD48A
- IC50 (nM), cell proliferation/survival (CellTiter-Glo), KMS-21-BM, with anti-human Fc-VC-MMAE (Human CD48 on cells): 0.016 nM
- IC50 (nM), cell proliferation/survival (CellTiter-Glo), KMS-27, with anti-human Fc-VC-MMAE (Human CD48 on cells): 0.001 nM
- IC50 (nM), cell proliferation/survival (CellTiter-Glo), NCI-H929, with anti-human Fc-VC-MMAE (Human CD48 on cells): 0.007 nM

Reference: patent US20220162308A1 (Novartis, published 2022)
